*: point of attachment. MTSL = MTSL nitroxide spin label (R1), CC1(C)C=C(CS*)C(C)(C)N1[O]
B1: Atox1 metallochaperone, wild-type, non spin-labeled (natural protein, human)
chain: MPKHEFSVDMTCGGCAEAVSRVLNKLGGVKYDIDLPNKKVCIESEHSMDTLLATLKKTGKTVSYLGLE
notes: Atox1 copper metallochaperone, human, wild type
B2: Atox1 metallochaperone, spin-labeled at C41 (natural protein, human)
chain: MPKHEFSVDMTCGGCAEAVSRVLNKLGGVKYDIDLPNKKVC(MTSL)IESEHSMDTLLATLKKTGKTVSYLGLE
notes: Atox1 copper metallochaperone, human; also called sl-Atox1; spin-labeled Atox1

Target: T1, ATP7B metal binding domains 4-6, spin-labeled (human, UniProt P35670 356-633, MTSL nitroxide spin label (R1) on C358, C431 and C490)
T1 construct: No residue limits are printed; the printed primers translate to a start at GTCSTTL and an end at FHASLAQ followed by a stop codon; Printed mass 29.2 kDa; also called MBD4-6; ATP7B 4-6 domains; source: E. coli Origami 2, purified (chitin bead column, intein self-cleavage with DTT)
T1 sequence (looked up): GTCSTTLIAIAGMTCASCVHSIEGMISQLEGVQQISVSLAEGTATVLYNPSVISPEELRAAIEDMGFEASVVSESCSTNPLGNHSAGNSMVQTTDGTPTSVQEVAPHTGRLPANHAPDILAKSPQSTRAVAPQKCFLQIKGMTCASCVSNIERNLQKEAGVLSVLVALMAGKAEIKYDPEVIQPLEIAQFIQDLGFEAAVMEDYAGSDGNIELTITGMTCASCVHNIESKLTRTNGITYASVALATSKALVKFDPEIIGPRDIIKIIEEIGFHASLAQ
Assay: CW-EPR of spin-labeled proteins; X-band, room temperature (292 ± 5 K), in solution; Atox1 or sl-Atox1 added to spin-labeled MBDs at 1:1 (Atox1:MBD); with and without Cu(I); spin-labeled protein 0.01-0.03 mM
Details: both partners purified

| Binder | binding result |
| --- | --- |
| B1 | binds |
| B2 | binds |

Source: paper PMC7432781, “An EPR Study on the Interaction between the Cu(I) Metal Binding Domains of ATP7B and the Atox1 Metallochaperone” (International Journal of Molecular Sciences, 2020)
